Measurements from PMC2832190.

Target: (Ni2+-NTA)2-Cy3-His6-AGT (O6-alkylguanine-DNA alkyltransferase) (human, UniProt P16455 1-207)
Test: FRET

(Ni2+-NTA)2-Cy3-His6-AGT (O6-alkylguanine-DNA alkyltransferase), sequence (P16455 whole entry): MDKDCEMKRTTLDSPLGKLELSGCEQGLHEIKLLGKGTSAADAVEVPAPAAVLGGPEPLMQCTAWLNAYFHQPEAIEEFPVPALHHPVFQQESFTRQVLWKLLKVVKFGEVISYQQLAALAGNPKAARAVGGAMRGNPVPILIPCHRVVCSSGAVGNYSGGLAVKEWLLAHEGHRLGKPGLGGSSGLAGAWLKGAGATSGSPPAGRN

Binder: GACTGACTGACTGACTGACTGACTGA (ssDNA) [FAM-DNA 26-mer]
- apparent K (half saturation): 554000 M⁻¹
